Measured values from patent US20160272683A1 (Novo Nordisk, published 2016).
Numbered stars: 1 amine (or outer) side, 2 acyl side, 3 side chain; on linkers, the order of the positions; unused ones are H or OH. * marks the point of attachment. C20 diacid = O=C(O)CCCCCCCCCCCCCCCCCCC(=O)*; C18 diacid = O=C(O)CCCCCCCCCCCCCCCCC(=O)*; γGlu = O=C(O)[C@H](CCC(=O)[*:2])N[*:1]; C14 diacid = O=C(O)CCCCCCCCCCCCC(=O)*

T1: human amylin receptor (human calcitonin receptor + human RAMP3) (human) (UniProt P30988)
T1 sequence (looked up) 1: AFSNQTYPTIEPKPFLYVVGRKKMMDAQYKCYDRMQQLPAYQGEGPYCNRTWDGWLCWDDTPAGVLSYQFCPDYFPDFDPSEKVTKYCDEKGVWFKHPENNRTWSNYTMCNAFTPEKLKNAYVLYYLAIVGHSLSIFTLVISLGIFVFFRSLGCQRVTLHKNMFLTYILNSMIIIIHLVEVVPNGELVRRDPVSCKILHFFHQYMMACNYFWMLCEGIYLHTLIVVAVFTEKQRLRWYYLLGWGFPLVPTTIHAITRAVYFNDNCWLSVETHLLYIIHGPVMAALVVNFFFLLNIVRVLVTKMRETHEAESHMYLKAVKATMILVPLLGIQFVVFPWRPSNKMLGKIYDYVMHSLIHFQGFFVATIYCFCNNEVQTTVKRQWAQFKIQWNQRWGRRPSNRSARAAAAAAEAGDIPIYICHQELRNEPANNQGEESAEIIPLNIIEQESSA
T1 sequence (looked up) 2: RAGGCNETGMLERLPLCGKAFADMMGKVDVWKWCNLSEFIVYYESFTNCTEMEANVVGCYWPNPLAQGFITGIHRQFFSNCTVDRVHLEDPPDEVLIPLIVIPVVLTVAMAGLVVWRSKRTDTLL


Target: T1, human amylin receptor (human calcitonin receptor + human RAMP3) (human)
Assay: whole-cell competition vs 125I-rat amylin (Assay Va)

IC50 [nM] | Binder
0.832 | {C18 diacid}-EASEHSTAALGRLSAELHELATLPRTETGPESP-NH2 (SMILES CC(C)C[C@H](NC(=O)[C@H](C)NC(=O)[C@H](C)NC(=O)[C@@H](NC(=O)[C@H](CO)NC(=O)[C@H](Cc1c[nH]cn1)NC(=O)[C@H](CCC(=O)O)NC(=O)[C@H](CO)NC(=O)[C@H](C)NC(=O)[C@H](CCC(=O)O)NC(=O)CCCCCCCCCCCCCCCCC(=O)O)[C@@H](C)O)C(=O)NCC(=O)N[C@@H](CCCNC(=N)N)C(=O)N[C@@H](CC(C)C)C(=O)N[C@@H](CO)C(=O)N[C@@H](C)C(=O)N[C@@H](CCC(=O)O)C(=O)N[C@@H](CC(C)C)C(=O)N[C@@H](Cc1c[nH]cn1)C(=O)N[C@@H](CCC(=O)O)C(=O)N[C@@H](CC(C)C)C(=O)N[C@@H](C)C(=O)N[C@H](C(=O)N[C@@H](CC(C)C)C(=O)N1CCC[C@H]1C(=O)N[C@@H](CCCNC(=N)N)C(=O)N[C@H](C(=O)N[C@@H](CCC(=O)O)C(=O)N[C@H](C(=O)NCC(=O)N1CCC[C@H]1C(=O)N[C@@H](CCC(=O)O)C(=O)N[C@@H](CO)C(=O)N1CCC[C@H]1C(N)=O)[C@@H](C)O)[C@@H](C)O)[C@@H](C)O) [[N-terminal(C18 diacid), 5H]mimylin]
0.24 | {C20 diacid}-EASELSTAALGRLSAELHELATLPRTETGSGSP-NH2 [[N-terminal(C20 diacid), 30S, 31G]mimylin]
0.374 | {C18 diacid}-EASELSTALAGRLSAELHELATLPRTETGPESP-NH2 (SMILES CC(C)C[C@H](NC(=O)[C@H](C)NC(=O)[C@@H](NC(=O)[C@H](CO)NC(=O)[C@H](CC(C)C)NC(=O)[C@H](CCC(=O)O)NC(=O)[C@H](CO)NC(=O)[C@H](C)NC(=O)[C@H](CCC(=O)O)NC(=O)CCCCCCCCCCCCCCCCC(=O)O)[C@@H](C)O)C(=O)N[C@@H](C)C(=O)NCC(=O)N[C@@H](CCCNC(=N)N)C(=O)N[C@@H](CC(C)C)C(=O)N[C@@H](CO)C(=O)N[C@@H](C)C(=O)N[C@@H](CCC(=O)O)C(=O)N[C@@H](CC(C)C)C(=O)N[C@@H](Cc1c[nH]cn1)C(=O)N[C@@H](CCC(=O)O)C(=O)N[C@@H](CC(C)C)C(=O)N[C@@H](C)C(=O)N[C@H](C(=O)N[C@@H](CC(C)C)C(=O)N1CCC[C@H]1C(=O)N[C@@H](CCCNC(=N)N)C(=O)N[C@H](C(=O)N[C@@H](CCC(=O)O)C(=O)N[C@H](C(=O)NCC(=O)N1CCC[C@H]1C(=O)N[C@@H](CCC(=O)O)C(=O)N[C@@H](CO)C(=O)N1CCC[C@H]1C(N)=O)[C@@H](C)O)[C@@H](C)O)[C@@H](C)O) [[N-terminal(C18 diacid), 9L, 10A]mimylin]
0.4 | {C18 diacid}-EASEISTAILGRLSAELHELATLPRTETGPESP-NH2 (SMILES CC[C@H](C)[C@H](NC(=O)[C@H](C)NC(=O)[C@@H](NC(=O)[C@H](CO)NC(=O)[C@@H](NC(=O)[C@H](CCC(=O)O)NC(=O)[C@H](CO)NC(=O)[C@H](C)NC(=O)[C@H](CCC(=O)O)NC(=O)CCCCCCCCCCCCCCCCC(=O)O)[C@@H](C)CC)[C@@H](C)O)C(=O)N[C@@H](CC(C)C)C(=O)NCC(=O)N[C@@H](CCCNC(=N)N)C(=O)N[C@@H](CC(C)C)C(=O)N[C@@H](CO)C(=O)N[C@@H](C)C(=O)N[C@@H](CCC(=O)O)C(=O)N[C@@H](CC(C)C)C(=O)N[C@@H](Cc1c[nH]cn1)C(=O)N[C@@H](CCC(=O)O)C(=O)N[C@@H](CC(C)C)C(=O)N[C@@H](C)C(=O)N[C@H](C(=O)N[C@@H](CC(C)C)C(=O)N1CCC[C@H]1C(=O)N[C@@H](CCCNC(=N)N)C(=O)N[C@H](C(=O)N[C@@H](CCC(=O)O)C(=O)N[C@H](C(=O)NCC(=O)N1CCC[C@H]1C(=O)N[C@@H](CCC(=O)O)C(=O)N[C@@H](CO)C(=O)N1CCC[C@H]1C(N)=O)[C@@H](C)O)[C@@H](C)O)[C@@H](C)O) [[N-terminal(C18 diacid), 5I, 9I]mimylin]

Continued, binder first:

Binder | IC50 [nM]
{C18 diacid}-EASELSTAALGRLSAELHELATLPRTETGPEHP-NH2 (SMILES CC(C)C[C@H](NC(=O)[C@H](C)NC(=O)[C@H](C)NC(=O)[C@@H](NC(=O)[C@H](CO)NC(=O)[C@H](CC(C)C)NC(=O)[C@H](CCC(=O)O)NC(=O)[C@H](CO)NC(=O)[C@H](C)NC(=O)[C@H](CCC(=O)O)NC(=O)CCCCCCCCCCCCCCCCC(=O)O)[C@@H](C)O)C(=O)NCC(=O)N[C@@H](CCCNC(=N)N)C(=O)N[C@@H](CC(C)C)C(=O)N[C@@H](CO)C(=O)N[C@@H](C)C(=O)N[C@@H](CCC(=O)O)C(=O)N[C@@H](CC(C)C)C(=O)N[C@@H](Cc1c[nH]cn1)C(=O)N[C@@H](CCC(=O)O)C(=O)N[C@@H](CC(C)C)C(=O)N[C@@H](C)C(=O)N[C@H](C(=O)N[C@@H](CC(C)C)C(=O)N1CCC[C@H]1C(=O)N[C@@H](CCCNC(=N)N)C(=O)N[C@H](C(=O)N[C@@H](CCC(=O)O)C(=O)N[C@H](C(=O)NCC(=O)N1CCC[C@H]1C(=O)N[C@@H](CCC(=O)O)C(=O)N[C@@H](Cc1c[nH]cn1)C(=O)N1CCC[C@H]1C(N)=O)[C@@H](C)O)[C@@H](C)O)[C@@H](C)O) [[N-terminal(C18 diacid), 32H]mimylin] | 1.26
{C18 diacid-γGlu}-ASELSTAALGRLSAELHELATLPRTETGSESP-NH2 (SMILES CC(C)C[C@H](NC(=O)[C@H](C)NC(=O)[C@H](C)NC(=O)[C@@H](NC(=O)[C@H](CO)NC(=O)[C@H](CC(C)C)NC(=O)[C@H](CCC(=O)O)NC(=O)[C@H](CO)NC(=O)[C@H](C)NC(=O)CC[C@H](NC(=O)CCCCCCCCCCCCCCCCC(=O)O)C(=O)O)[C@@H](C)O)C(=O)NCC(=O)N[C@@H](CCCNC(=N)N)C(=O)N[C@@H](CC(C)C)C(=O)N[C@@H](CO)C(=O)N[C@@H](C)C(=O)N[C@@H](CCC(=O)O)C(=O)N[C@@H](CC(C)C)C(=O)N[C@@H](Cc1c[nH]cn1)C(=O)N[C@@H](CCC(=O)O)C(=O)N[C@@H](CC(C)C)C(=O)N[C@@H](C)C(=O)N[C@H](C(=O)N[C@@H](CC(C)C)C(=O)N1CCC[C@H]1C(=O)N[C@@H](CCCNC(=N)N)C(=O)N[C@H](C(=O)N[C@@H](CCC(=O)O)C(=O)N[C@H](C(=O)NCC(=O)N[C@@H](CO)C(=O)N[C@@H](CCC(=O)O)C(=O)N[C@@H](CO)C(=O)N1CCC[C@H]1C(N)=O)[C@@H](C)O)[C@@H](C)O)[C@@H](C)O) [[N-terminal(C18 diacid-gGlu), des1, 30S]mimylin] | 0.83
{C18 diacid}-EASELSTAALGRLSAELHELATLPRTETGSGSP-NH2 [[N-terminal(C18 diacid), 30S, 31G]mimylin] | 0.187
{C14 diacid-γGlu}-ASELSTAALGRLSAELHELATLPRTETGPESP-NH2 [[N-terminal(C14 diacid-gGlu), des1]mimylin] | 1.14
{C18 diacid}-EASEVSTAVLGRLSAELHELATLPRTETGPESP-NH2 (SMILES CC(C)C[C@H](NC(=O)[C@H](CCC(=O)O)NC(=O)[C@H](Cc1c[nH]cn1)NC(=O)[C@H](CC(C)C)NC(=O)[C@H](CCC(=O)O)NC(=O)[C@H](C)NC(=O)[C@H](CO)NC(=O)[C@H](CC(C)C)NC(=O)[C@H](CCCNC(=N)N)NC(=O)CNC(=O)[C@H](CC(C)C)NC(=O)[C@@H](NC(=O)[C@H](C)NC(=O)[C@@H](NC(=O)[C@H](CO)NC(=O)[C@@H](NC(=O)[C@H](CCC(=O)O)NC(=O)[C@H](CO)NC(=O)[C@H](C)NC(=O)[C@H](CCC(=O)O)NC(=O)CCCCCCCCCCCCCCCCC(=O)O)C(C)C)[C@@H](C)O)C(C)C)C(=O)N[C@@H](C)C(=O)N[C@H](C(=O)N[C@@H](CC(C)C)C(=O)N1CCC[C@H]1C(=O)N[C@@H](CCCNC(=N)N)C(=O)N[C@H](C(=O)N[C@@H](CCC(=O)O)C(=O)N[C@H](C(=O)NCC(=O)N1CCC[C@H]1C(=O)N[C@@H](CCC(=O)O)C(=O)N[C@@H](CO)C(=O)N1CCC[C@H]1C(N)=O)[C@@H](C)O)[C@@H](C)O)[C@@H](C)O) [[N-terminal(C18 diacid), 5V, 9V]mimylin] | 0.824
{C18 diacid}-EASELSTAVIGRLSAELHELATLPRTETGPESP-NH2 (SMILES CC[C@H](C)[C@H](NC(=O)[C@@H](NC(=O)[C@H](C)NC(=O)[C@@H](NC(=O)[C@H](CO)NC(=O)[C@H](CC(C)C)NC(=O)[C@H](CCC(=O)O)NC(=O)[C@H](CO)NC(=O)[C@H](C)NC(=O)[C@H](CCC(=O)O)NC(=O)CCCCCCCCCCCCCCCCC(=O)O)[C@@H](C)O)C(C)C)C(=O)NCC(=O)N[C@@H](CCCNC(=N)N)C(=O)N[C@@H](CC(C)C)C(=O)N[C@@H](CO)C(=O)N[C@@H](C)C(=O)N[C@@H](CCC(=O)O)C(=O)N[C@@H](CC(C)C)C(=O)N[C@@H](Cc1c[nH]cn1)C(=O)N[C@@H](CCC(=O)O)C(=O)N[C@@H](CC(C)C)C(=O)N[C@@H](C)C(=O)N[C@H](C(=O)N[C@@H](CC(C)C)C(=O)N1CCC[C@H]1C(=O)N[C@@H](CCCNC(=N)N)C(=O)N[C@H](C(=O)N[C@@H](CCC(=O)O)C(=O)N[C@H](C(=O)NCC(=O)N1CCC[C@H]1C(=O)N[C@@H](CCC(=O)O)C(=O)N[C@@H](CO)C(=O)N1CCC[C@H]1C(N)=O)[C@@H](C)O)[C@@H](C)O)[C@@H](C)O) [[N-terminal(C18 diacid), 9V, 10I]mimylin] | 0.891
